FireProtDB (doi:10.1110/ps.0237703)

Settings: pH 8, Thermal, CD, Bis-Tris propane ammonium acetate 0.05 M 0.05 M, reversible: No, whole UniProt chain shown

B1: wild type, Q8NJY6 (protein)
chain: MKFLQVLPAILPAALAQTSCDQYATFSGNGYIVSNNLWGASAGSGFGCVTSVSLNGAASWHADWQWSGGQNNVKSYQNVQINIPQKRTVNSIGSMPTTASWSYSGSDIRANVAYDLFTAANPNHVTYSGDYELMIWLGKYGDIGPIGSSQGTVNVGGQTWTLYYGYNGAMQVYSFVAQSNTTSYSGDVKNFFNYLRDNKGYNAGGQYVLSYQFGTEPFTGSGTLNVASWTASIN
Trichoderma citrinoviride
  Tm: 49.2 °C

B2: wild type, Q8NJZ1 (protein)
chain: MKANIVILSLFAPLAAVAQTLCGQYSSNTQGGYIFNNNMWGMGSGSGSQCTYVDKVWAEGVAWHTDWSWSGGDNNVKSYPYSGRELGTKRIVSSIKSISSGADWDYTGSNLRANAAYDIFTSANPNHATSSGDYEVMIWLGRYGGVYPIGNSIGTVRAAGRDWALHIGYNGAMKVFSFVAANPVTRFDGEIMDFFYLLRDMQGYPMTSQYLLTLQFGTEPFTGSGAKFNCWYFGATLSYW
Bionectria ochroleuca
  Tm: 45.9 °C

B3: wild type, O00095 (protein)
chain: MKFLQVLPALIPAALAQTSCDQWATFTGNGYTVSNNLWGASAGSGFGCVTAVSLSGGASWHADWQWSGGQNNVKSYQNSQIAIPQKRTVNSISSMPTTASWSYSGSNIRANVAYDLFTAANPNHVTYSGDYELMIWLGKYGDIGPIGSSQGTVNVGGQSWTLYYGYNGAMQVYSFVAQTNTTNYSGDVKNFFNYLRDNKGYNAAGQYVLSYQFGTEPFTGSGTLNVASWTASIN
Hypocrea jecorina
  Tm: 54.4 °C
